Assay results published in patent US20200384107A1.

Biological target: CD40 (as in Table 2, species and form not stated)
Experiment: binding kinetics, method not stated

5D12 (anti-CD40 antibody)
Kd: 10.2 nM | koff: 1.54e-05 s⁻¹ | kon: 1510 M⁻¹ s⁻¹
